{"source": "paper PMC9313153", "about": "“Supramolecular Enzymatic Labeling for Aptamer Switch-Based Electrochemical Biosensor”", "target": "carcinoembryonic antigen (CEA) (UniProt P06731 35-685)", "sequence (P06731 35-685)": "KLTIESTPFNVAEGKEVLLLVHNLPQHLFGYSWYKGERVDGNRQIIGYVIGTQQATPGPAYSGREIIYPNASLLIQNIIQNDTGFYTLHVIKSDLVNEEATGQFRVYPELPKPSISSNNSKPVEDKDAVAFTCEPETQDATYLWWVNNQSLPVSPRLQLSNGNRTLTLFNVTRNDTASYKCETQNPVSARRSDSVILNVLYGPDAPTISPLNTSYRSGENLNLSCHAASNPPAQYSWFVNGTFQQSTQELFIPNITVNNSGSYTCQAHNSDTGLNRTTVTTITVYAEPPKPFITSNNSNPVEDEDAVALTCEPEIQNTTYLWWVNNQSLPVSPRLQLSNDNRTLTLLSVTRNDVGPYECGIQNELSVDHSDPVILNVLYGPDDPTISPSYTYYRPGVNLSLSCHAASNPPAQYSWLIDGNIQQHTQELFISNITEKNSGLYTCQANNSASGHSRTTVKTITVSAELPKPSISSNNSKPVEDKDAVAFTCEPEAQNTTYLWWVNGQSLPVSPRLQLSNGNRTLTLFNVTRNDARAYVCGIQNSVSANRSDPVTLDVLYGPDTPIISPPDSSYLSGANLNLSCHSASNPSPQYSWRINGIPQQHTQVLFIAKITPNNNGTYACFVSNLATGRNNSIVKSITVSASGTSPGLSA", "assay": "amperometric aptasensor (electrode-immobilized aptamer, HRP-CD label); HRP-CD, H2O2; detection range 10 pg/mL to 1 ng/mL, LOD 3.1 pg/mL (not a Kd); Aptamer electrode washed in 20 mM Tris-HCl pH 7.4, 100 mM NaCl, 5 mM MgCl2; casein block; read-out in 0.1 M sodium phosphate pH 7.4 with H2O2; CEA incubation buffer and temperature not in the material", "settings": "protein: commercial; label: 5' thiol on gold nanoparticles; 3' adamantane for HRP-cyclodextrin; hairpin", "data": [{"binder": "CCACGATACCAGCTTATTCAATTCGTGG (structured_DNA, 5'-HS-(CH2)6; 3'-(CH2)6-NH2 converted to adamantane (ADA))", "note": "[Apt-ADA (anti-CEA aptamer)]", "values": [{"measurement": "binding result", "value": "binds"}]}]}
